Experimental data: publication PMC2742680

Target: Galdieria sulphuraria sarcosine dimethylglycine methyltransferase (Galdieria sulphuraria)
Assay: SEC

Galdieria sulphuraria sarcosine dimethylglycine methyltransferase (enzyme)
stoichiometry N: 2
